Non-standard residues stand in square brackets, D forms with d. No end group written: not given here. Cha = N[C@@H](CC1CCCCC1)C(=O)O; 14 = not defined here
Key:
[1] = target: T1, mouse class II IA^k, purified from CH12 cells (mouse), P01910; experiment: assay standard, average IC50
T1 chain 1: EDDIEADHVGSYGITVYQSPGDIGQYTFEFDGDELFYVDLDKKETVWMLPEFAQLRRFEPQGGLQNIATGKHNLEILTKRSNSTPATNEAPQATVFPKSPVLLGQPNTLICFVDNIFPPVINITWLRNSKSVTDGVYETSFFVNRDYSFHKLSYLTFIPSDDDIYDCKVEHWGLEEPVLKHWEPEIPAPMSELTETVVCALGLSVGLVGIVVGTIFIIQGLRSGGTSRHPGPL
T1 chain 2: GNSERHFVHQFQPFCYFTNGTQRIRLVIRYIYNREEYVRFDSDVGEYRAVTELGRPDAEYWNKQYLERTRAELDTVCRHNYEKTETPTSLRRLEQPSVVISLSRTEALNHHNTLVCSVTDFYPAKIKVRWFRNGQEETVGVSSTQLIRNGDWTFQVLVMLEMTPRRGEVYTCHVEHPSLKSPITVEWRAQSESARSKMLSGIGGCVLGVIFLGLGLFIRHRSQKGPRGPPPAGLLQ

[2] = target: mouse class II IA^s, purified from LS102.9 cells (mouse); experiment: 125I-peptide inhibition, purified class II
[3] = target: mouse class II IE^k, purified from CH12 cells (mouse); experiment: 125I-peptide inhibition, purified class II
[4] = target: T2, HLA-DR7 (DRB1*0701), purified from PITOUT cells (human); experiment: 125I-peptide inhibition, purified class II
T2 chain 1: not shown
T2 chain 2: not shown

[5] = target: T3, HLA-DR5 (DRB1*11011), purified from SWEIG cells (human); experiment: 125I-peptide inhibition, purified class II
T3 chain 1: not shown
T3 chain 2: not shown

[6] = target: T4, HLA-DR3 (DRB1*0301), purified from MAT cells (human); experiment: 125I-peptide inhibition, purified class II
T4 chain 1: not shown
T4 chain 2: not shown

[7] = target: T5, HLA-DR2w2a (DRB5*0101), purified from L416.3 transfected fibroblasts (human); experiment: 125I-peptide inhibition, purified class II
T5 chain 1: not shown
T5 chain 2: not shown

[8] = target: HLA-DR1 (DRB1*0101), purified from LG2 cells (human); experiment: 125I-peptide inhibition, purified class II
[9] = target: T6, HLA-DRw53 (DRB4*0101), purified from L257.6 transfected fibroblasts (human); experiment: 125I-peptide inhibition, purified class II
T6 chain 1: not shown
T6 chain 2: not shown

[10] = target: mouse class II IE^d, purified from A20 cells (mouse); experiment: 125I-peptide inhibition, purified class II
[11] = target: T7, HLA-DR52a (DRB3*0101), purified from MAT cells or TR81.19 transfected fibroblasts (human); experiment: 125I-peptide inhibition, purified class II
T7 chain 1: not shown
T7 chain 2: not shown

[12] = target: T8, mouse class II IA^d, purified from A20 cells (mouse), P04228; experiment: 125I-peptide inhibition, purified class II
T8 chain 1: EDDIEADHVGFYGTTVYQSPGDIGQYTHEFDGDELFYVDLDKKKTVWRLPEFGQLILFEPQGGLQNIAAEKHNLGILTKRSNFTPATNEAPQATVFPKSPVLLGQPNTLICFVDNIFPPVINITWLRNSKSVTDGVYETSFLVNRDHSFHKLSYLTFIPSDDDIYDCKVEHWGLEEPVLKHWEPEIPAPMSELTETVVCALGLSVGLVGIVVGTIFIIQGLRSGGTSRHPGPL
T8 chain 2: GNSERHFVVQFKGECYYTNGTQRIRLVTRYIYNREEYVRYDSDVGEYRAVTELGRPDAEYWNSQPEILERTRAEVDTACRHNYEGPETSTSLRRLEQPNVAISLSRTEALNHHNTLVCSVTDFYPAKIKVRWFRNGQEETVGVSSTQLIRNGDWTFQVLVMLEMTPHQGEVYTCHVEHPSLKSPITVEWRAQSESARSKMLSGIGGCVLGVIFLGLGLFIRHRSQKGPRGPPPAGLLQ

[13] = target: T9, HLA-DR2w2b (DRB1*1501), purified from 3107 cells (human); experiment: 125I-peptide inhibition, purified class II
T9 chain 1: not shown
T9 chain 2: not shown

[14] = target: T10, mouse class II IA^b, purified from DB27.4 cells (mouse), P14434; experiment: 125I-peptide inhibition, purified class II
T10 chain 1: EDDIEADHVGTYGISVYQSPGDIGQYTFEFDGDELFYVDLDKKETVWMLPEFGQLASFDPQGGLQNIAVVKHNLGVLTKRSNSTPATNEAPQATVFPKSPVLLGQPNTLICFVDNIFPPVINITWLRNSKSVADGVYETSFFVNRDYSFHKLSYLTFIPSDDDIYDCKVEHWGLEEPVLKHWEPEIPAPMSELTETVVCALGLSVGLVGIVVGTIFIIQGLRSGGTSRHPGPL
T10 chain 2: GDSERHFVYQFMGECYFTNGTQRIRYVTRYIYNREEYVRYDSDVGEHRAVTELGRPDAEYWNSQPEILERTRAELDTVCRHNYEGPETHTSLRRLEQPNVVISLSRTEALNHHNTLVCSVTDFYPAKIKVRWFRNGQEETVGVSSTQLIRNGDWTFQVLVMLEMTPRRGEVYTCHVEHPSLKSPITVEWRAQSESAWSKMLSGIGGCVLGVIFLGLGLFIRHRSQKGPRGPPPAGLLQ

[15] = target: T11, HLA-DR4w4 (DRB1*0401), purified from PREISS cells (human); experiment: 125I-peptide inhibition, purified class II
T11 chain 1: not shown
T11 chain 2: not shown

[16] = target: mouse class II IE^d, purified from A20 cells (mouse); experiment: assay standard, average IC50
[17] = target: T1, mouse class II IA^k, purified from CH12 …; experiment: 125I-peptide inhibition, purified class II
[18] = target: T8, mouse class II IA^d, purified from A20 …; experiment: assay standard, average IC50
[19] = target: T12, HLA-DR4w4 (DRB1*0401), purified from cell line PREISS (human); experiment: competition vs 125I-peptide, purified class II MHC
T12 chain 1: not shown
T12 chain 2: not shown

[20] = target: T13, HLA-DR5 (DRB1*11011), purified from cell line SWEIG (human); experiment: competition vs 125I-peptide, purified class II MHC
T13 chain 1: not shown
T13 chain 2: not shown

[21] = target: T14, HLA-DR3 (DRB1*0301), purified from cell line MAT (human); experiment: competition vs 125I-peptide, purified class II MHC
T14 chain 1: not shown
T14 chain 2: not shown

[22] = target: T15, HLA-DR2w2a (DRB5*0101), purified from transfected fibroblasts L416.3 (human); experiment: competition vs 125I-peptide, purified class II MHC
T15 chain 1: not shown
T15 chain 2: not shown

[23] = target: T16, HLA-DR7 (DRB1*0701), purified from cell line PITOUT (human); experiment: competition vs 125I-peptide, purified class II MHC
T16 chain 1: not shown
T16 chain 2: not shown

B1: HEL 46-61 (assay standard, with N-terminal Y) (peptide)
chain: YNTDGSTDYGILQINSR
modifications: not checked
IC50 [1]: 20 nM

B2: 906.11 (peptide)
peptide: [dA]A[Cha]IAAATLKAA[dA]
IC50 [2]: 98 nM
IC50 [3]: 14 nM
IC50 [4]: 31 nM
IC50 [5]: 2.4 nM
IC50 [6]: 100 nM
IC50 [7]: 1.3 nM
IC50 [8]: 0.38 nM
IC50 [9]: 41 nM
IC50 [10]: 13 nM

B3: 906.09 (peptide)
peptide: [dA]A[Cha]VAAATLKAA[dA]
IC50 [11]: 588 nM
IC50 [3]: 11 nM
IC50 [4]: 76 nM
IC50 [6]: 280 nM
IC50 [12]: 38 nM
IC50 [7]: 2 nM
IC50 [8]: 0.61 nM
IC50 [9]: 93 nM
IC50 [10]: 31 nM
IC50 [13]: 14 nM
IC50 [14]: 31 nM
IC50 [15]: 2.6 nM

B4: lambda rep 12-26 (peptide)
peptide: YLEDARRLKAIYEKKK
modifications: not checked
IC50 [16]: 170 nM
IC50 [12]: 1100 nM
IC50 [10]: 170 nM
IC50 [14]: > 10000 nM
IC50 [17]: > 10000 nM

B5: Ova 323-336 (peptide)
peptide: ISQAVHAAHAEINE
modifications: not checked
IC50 [18]: 110 nM
IC50 [3]: 700 nM
IC50 [12]: 110 nM
IC50 [17]: 1000 nM

B6: peptide 955.15 (as printed), aK(14)…a-NH2 (peptide)
peptide: [dA]K[14]VAAHTLKAA[dA]-NH2
modifications: reading uncertain; also: printed as aK(14)VAAHTLKAAa-NH2
IC50 [19]: 3.2 nM
IC50 [20]: 29.9 nM
IC50 [21]: 2500 nM
IC50 [22]: 5.4 nM

B7: peptide 965.021, aK(14)…a-NH2 (peptide)
peptide: [dA]K[14]VKAWTLKAA[dA]-NH2
modifications: reading uncertain; also: printed as aK(14)VKAWTLKAAa-NH2
IC50 [20]: 4.1 nM
IC50 [23]: 89.3 nM
IC50 [21]: 1100 nM

From patent US6413935
